Laboratory results published in patent publication US20030069395A1 (DYAX, published 2003).

Columns and labels:
[1] = biological target: T1, human serum albumin (HSA) (human, UniProt P02768 25-609); assay: fluorescence anisotropy; pH 6.2, 10 mM NaCl
T1 construct: also called caprylate-biotinylated-HSA
Procedure: (§1) Affinity determinations were made by first labeling polypeptides on the C-terminal end with NHS-fluorescein. Fluorescence anisotropy measurements were performed in 384-well microplates in a volume of 10 μl in binding buffer using a Tecan Polarion fluorescence polarization plate reader. The concentration of fluorescein labeled peptide was held constant (20 nM), and the concentration of HSA was varied. For pH 6.2, 7.1, and 7.4 binding conditions, a 3 mM phosphate, 0.01% Tween-20 buffer was used. For pH 9.1 binding conditions, a 3 mM sodium bicarbonate buffer, 0.01% Tween-20 nonionic detergent buffer was used. Once NaCl was added to any of these buffers, their pH was adjusted again to achieve the original pH. The binding mixtures were equilibrated for 10 minutes in the microplate at 30° C. prior to performing the measurement. The observed change in anisotropy was fit to the equation below via nonlinear regression to obtain the apparent KD. This equation assumes that the peptide and HSA form a reversible complex with 1:1 stoichiometry.

[2] = biological target: T1, human serum albumin (HSA); assay: fluorescence anisotropy; pH 7.4, 0.14 M NaCl, no caprylate
Procedure: as §1

[3] = biological target: T1, human serum albumin (HSA); assay: fluorescence anisotropy; pH 6.2, no NaCl, no caprylate
Procedure: as §1

[4] = biological target: T2, goat serum albumin (GSA) (Goat); assay: fluorescence anisotropy; PBS, pH 7.4, 0.14 M NaCl
T2 sequence (P85295 whole entry, looked up): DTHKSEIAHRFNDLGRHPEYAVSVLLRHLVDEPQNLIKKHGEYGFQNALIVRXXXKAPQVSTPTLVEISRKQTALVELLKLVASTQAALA

[5] = biological target: T3, rhesus serum albumin (Rhesus, UniProt Q28522 17-600); assay: fluorescence anisotropy; PBS, pH 7.4, 0.14 M NaCl
[6] = biological target: T4, bovine serum albumin (BSA) (Bovine, UniProt P02769 25-607); assay: fluorescence anisotropy; PBS, pH 7.4, 0.14 M NaCl
[7] = biological target: T1, human serum albumin (HSA); assay: fluorescence anisotropy; PBS, pH 7.4, 0.14 M NaCl
[8] = biological target: rat serum albumin (Rat, UniProt P02770 25-608); assay: fluorescence anisotropy; PBS, pH 7.4, 0.14 M NaCl
[9] = biological target: T5, pig serum albumin (Pig, UniProt P08835 25-607); assay: fluorescence anisotropy; PBS, pH 7.4, 0.14 M NaCl
[10] = biological target: T6, murine serum albumin (MSA) (Mouse, UniProt P07724 25-608); assay: fluorescence anisotropy; PBS, pH 7.4, 0.14 M NaCl
T6 construct: also called mouse serum albumin; Mouse

[11] = biological target: T7, chicken ovalbumin (Chicken, UniProt P01012 2-386); assay: fluorescence anisotropy; 3 mM phosphate, pH 6.2, 0 M NaCl; negative control
T7 construct: Negative control; also called Chicken (egg)
T7 sequence (looked up): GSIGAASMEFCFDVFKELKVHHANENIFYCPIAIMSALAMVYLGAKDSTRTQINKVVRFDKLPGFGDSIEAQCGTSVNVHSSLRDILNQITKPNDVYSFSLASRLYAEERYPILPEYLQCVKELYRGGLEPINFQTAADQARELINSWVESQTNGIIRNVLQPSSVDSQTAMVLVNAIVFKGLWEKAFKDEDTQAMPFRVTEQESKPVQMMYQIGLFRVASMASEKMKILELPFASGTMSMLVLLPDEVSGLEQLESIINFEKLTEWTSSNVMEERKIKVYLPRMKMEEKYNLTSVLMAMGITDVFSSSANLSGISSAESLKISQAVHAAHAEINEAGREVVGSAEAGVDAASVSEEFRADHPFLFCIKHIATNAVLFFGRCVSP

[12] = biological target: T2, goat serum albumin (GSA); assay: fluorescence anisotropy; 3 mM phosphate, pH 6.2, 0 M NaCl
[13] = biological target: T3, rhesus serum albumin; assay: as above
[14] = biological target: T4, bovine serum albumin (BSA); assay: as above
[15] = biological target: T1, human serum albumin (HSA); assay: as above
[16] = biological target: T5, pig serum albumin; assay: as above
[17] = biological target: T6, murine serum albumin (MSA); assay: as above
[18] = biological target: T1, human serum albumin (HSA); assay: fluorescence anisotropy; pH 7.4, 0.14 M NaCl, 0.1% caprylate
Procedure: as §1
Once all the positive phage isolates were sequenced, peptides corresponding to the display peptide were synthesized. A small amount of constant phage sequence surrounding each varied amino acid sequence region was retained and either a -GGGK-NH₂ (SEQ ID NO: 24) amino acid sequence or -X-K-NH₂ C-terminal tail was added to each peptide, where X is 6-aminohexanoic acid and K-NH₂ is an amidated terminal lysine residue. The constant phage sequence was retained because these residues can often play a role in target binding. To determine its affinity for HSA , each peptide was labeled with fluorescein on the C-terminal lysine side chain.

[19] = biological target: T1, human serum albumin (HSA); assay: fluorescence anisotropy; pH 6.2, 0.14 M NaCl, no caprylate
Procedure: as §1

[20] = biological target: T7, chicken ovalbumin; assay: fluorescence anisotropy; PBS, pH 7.4, 0.14 M NaCl; negative control

T4 sequence (P02769 25-607 limits assumed): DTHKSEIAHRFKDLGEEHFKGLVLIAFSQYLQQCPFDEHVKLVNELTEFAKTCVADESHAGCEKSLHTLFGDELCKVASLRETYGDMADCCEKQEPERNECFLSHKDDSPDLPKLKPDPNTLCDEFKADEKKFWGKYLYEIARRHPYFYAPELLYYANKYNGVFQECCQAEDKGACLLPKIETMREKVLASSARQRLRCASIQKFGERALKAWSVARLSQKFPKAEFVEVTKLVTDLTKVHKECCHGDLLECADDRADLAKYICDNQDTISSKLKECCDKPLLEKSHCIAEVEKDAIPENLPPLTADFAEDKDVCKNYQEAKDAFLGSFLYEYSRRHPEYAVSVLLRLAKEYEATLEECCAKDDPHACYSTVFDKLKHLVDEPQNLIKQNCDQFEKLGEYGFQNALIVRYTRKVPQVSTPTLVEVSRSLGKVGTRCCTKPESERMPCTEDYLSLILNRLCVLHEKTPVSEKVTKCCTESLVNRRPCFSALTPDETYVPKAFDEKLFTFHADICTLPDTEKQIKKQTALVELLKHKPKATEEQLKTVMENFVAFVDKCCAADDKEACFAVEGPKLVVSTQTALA
T5 sequence (P08835 25-607 limits assumed): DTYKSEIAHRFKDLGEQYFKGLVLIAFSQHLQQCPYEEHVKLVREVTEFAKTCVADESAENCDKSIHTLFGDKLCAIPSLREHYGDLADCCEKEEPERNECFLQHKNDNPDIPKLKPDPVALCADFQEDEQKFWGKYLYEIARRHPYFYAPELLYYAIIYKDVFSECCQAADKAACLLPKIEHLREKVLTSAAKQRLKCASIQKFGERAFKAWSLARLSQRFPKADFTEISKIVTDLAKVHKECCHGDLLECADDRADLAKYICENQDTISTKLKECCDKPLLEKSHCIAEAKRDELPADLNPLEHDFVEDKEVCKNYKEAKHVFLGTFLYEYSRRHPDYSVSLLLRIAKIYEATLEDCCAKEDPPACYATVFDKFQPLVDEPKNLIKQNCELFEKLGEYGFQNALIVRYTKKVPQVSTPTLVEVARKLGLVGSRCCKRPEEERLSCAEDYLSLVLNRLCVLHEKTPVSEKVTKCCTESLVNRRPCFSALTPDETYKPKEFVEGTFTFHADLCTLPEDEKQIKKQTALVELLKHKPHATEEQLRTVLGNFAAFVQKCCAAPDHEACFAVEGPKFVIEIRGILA
T3 sequence (Q28522 17-600 limits assumed): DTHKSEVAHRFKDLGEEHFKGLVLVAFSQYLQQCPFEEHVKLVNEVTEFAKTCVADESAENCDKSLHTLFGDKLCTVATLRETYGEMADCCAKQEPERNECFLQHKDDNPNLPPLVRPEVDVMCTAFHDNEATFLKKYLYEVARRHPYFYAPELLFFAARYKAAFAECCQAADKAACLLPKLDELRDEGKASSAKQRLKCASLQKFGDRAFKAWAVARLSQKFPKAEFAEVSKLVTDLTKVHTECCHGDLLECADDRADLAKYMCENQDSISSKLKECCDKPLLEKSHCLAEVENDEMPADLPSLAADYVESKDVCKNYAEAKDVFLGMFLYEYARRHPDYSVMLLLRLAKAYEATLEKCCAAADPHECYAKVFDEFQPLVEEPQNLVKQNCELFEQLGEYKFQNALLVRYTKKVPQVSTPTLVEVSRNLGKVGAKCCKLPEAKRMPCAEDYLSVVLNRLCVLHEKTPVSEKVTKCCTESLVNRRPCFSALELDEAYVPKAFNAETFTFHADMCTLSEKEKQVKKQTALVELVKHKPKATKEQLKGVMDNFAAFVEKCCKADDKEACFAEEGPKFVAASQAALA
T6 sequence (P07724 25-608 limits assumed): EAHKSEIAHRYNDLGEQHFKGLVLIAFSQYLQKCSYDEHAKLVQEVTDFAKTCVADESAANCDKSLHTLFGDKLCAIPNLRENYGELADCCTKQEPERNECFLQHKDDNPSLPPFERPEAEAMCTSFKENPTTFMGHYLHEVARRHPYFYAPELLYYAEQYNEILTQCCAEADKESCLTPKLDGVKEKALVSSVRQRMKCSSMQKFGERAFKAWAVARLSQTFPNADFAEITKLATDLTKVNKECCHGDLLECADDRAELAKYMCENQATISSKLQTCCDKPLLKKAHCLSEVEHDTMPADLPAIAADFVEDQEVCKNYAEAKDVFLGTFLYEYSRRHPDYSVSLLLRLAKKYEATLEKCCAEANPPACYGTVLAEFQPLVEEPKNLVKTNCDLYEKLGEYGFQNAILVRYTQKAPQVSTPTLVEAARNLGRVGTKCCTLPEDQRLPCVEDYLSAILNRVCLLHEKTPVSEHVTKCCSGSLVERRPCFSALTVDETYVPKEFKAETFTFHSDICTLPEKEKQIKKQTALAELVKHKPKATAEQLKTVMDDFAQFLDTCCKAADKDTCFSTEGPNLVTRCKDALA
Sequence of rat serum albumin (P02770 25-608 limits assumed): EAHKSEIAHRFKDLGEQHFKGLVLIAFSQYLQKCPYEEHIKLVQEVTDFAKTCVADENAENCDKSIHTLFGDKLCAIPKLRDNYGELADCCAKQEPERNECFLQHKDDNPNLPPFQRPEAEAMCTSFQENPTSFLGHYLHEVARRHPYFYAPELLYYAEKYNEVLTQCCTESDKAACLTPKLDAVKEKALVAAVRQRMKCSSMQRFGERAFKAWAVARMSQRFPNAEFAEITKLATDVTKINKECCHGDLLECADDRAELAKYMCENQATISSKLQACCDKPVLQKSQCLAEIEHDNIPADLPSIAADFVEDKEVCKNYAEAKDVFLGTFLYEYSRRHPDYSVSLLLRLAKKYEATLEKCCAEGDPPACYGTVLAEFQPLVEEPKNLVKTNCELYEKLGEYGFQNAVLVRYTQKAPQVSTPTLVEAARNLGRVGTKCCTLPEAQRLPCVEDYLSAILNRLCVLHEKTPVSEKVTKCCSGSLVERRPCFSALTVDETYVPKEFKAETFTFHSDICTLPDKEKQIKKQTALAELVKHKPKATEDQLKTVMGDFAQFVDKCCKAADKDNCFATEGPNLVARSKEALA

B1: DX-321, Ac-AEGTGDRNMCKFSWIRSPAFCARADPE-X-K-NH2 (peptide)
peptide: AEGTGDRNMCKFSWIRSPAFCARADPEXK
modifications: N-terminal acetyl; X = 6-aminohexanoic acid before the C-terminal Lys; C-terminal amide; C-terminal Lys side chain carries fluorescein (anisotropy) or is coupled to NHS-Sepharose
Question: Which results are given for B1?
Answer: Kd [1]: ~9 µM; Kd [2]: 84 µM; Kd [3]: 0.9 µM; Kd [4]: 83 µM; Kd [5]: 82 µM; Kd [6]: > 200 µM; Kd [7]: 84 µM; Kd [8]: 117 µM; Kd [9]: > 200 µM; Kd [10]: > 200 µM; Kd [11]: > 200 µM; Kd [12]: 95 µM; Kd [13]: 38 µM; Kd [14]: 21 µM; Kd [15]: 0.9 µM; Kd [16]: 21 µM; Kd [17]: > 200 µM; Kd [18]: 75 µM; Kd [19]: 9 µM; Kd [20]: > 200 µM
